Data reported in patent US20050043231A1, “Therapy for growth hormone induced insulin resistance in juveniles with growth disorders” (priority 2001, published 2005).

Tests used:
[1] = Insulin sensitivity by Bergman's minimal model (frequently sampled iv glucose tolerance test with tolbutamide) in short SGA children on rhGH therapy; format: in vivo, human
Source text: All subjects were born SGA, had marked short stature (height approximately—3 standard deviation score (SDS)) with a height velocity<25th percentile for >1 year prior to starting rhGH therapy. SGA was defined as a birth weight<10th percentile for gestational age. Additional enrolment criteria for inclusion into the study included; no change in Tanner pubertal stage and/or testicular volumes throughout the study period, normal GH response to clonidine stimulation (defined as a GH level≧7 μgm/L), absence of both islet cell antibodies (<10 Juvenile Diabetes Foundation units) and insulin autoantibodies to exclude type 1 prediabetes. Prepubertal subjects were defined as males with a testicular volume<4 ml and girls with tanner stage 1 breast development. Subjects were excluded if; a chromosomal, intrauterine infection or syndromal cause for SGA was identified, a first degree relative had type 2 diabetes mellitus, or medical therapy was taken that was known to influence SI. Subjects were recruited from the Endocrinology Clinics at Starship Children's Hospital. Birth weight and length were converted into SDSs to correct for age and sex. Body mass index (BMI) was used as a measure of relative obesity and expressed as BMI SDS.
Insulin sensitivity (SI) was measured in 11 subjects prior to and 12 subjects during rhGH treatment. In addition five prepubertal subjects agreed to have rhGH therapy suspended for three months with reassessment of SI. Bergman's minimal model was used to measure SI, acute insulin response (AIR) and glucose effectiveness (Sg). The data was provided from a 90 min frequently sampled iv glucose tolerance test with tolbutamide, which had been modified and validated for use in children as previously described (Cutfield et al. 1990). SI is a measure of insulin mediated glucose uptake, AIR a measure of insulin secretory capacity and Sg is a measure of glucose stimulated glucose uptake independent of insulin. These three indices are characteristic measurements useful for determining glycemic states. Plasma glucose and insulin was measured from all samples and the values used for measurement of SI, AIR and Sg. Approval for the study was provided by the North Health Ethics Committee and signed, informed consent was obtained from subjects and their parents.
Plasma glucose concentration was measured using a Hitachi 911 automated random access analyser (Tokyo, Japan) with an interassay coefficient variation of 1.2% (Trinder P. Determination of blood glucose using an oxidase-peroxidase system with a non-carcinogenic chromogen. J Clin Pathol […]; 22: 158-61). Insulin was determined by Abbotts IMX microparticle enzyme immunoassay with an interassay coefficient of variation of <5%. Plasma IGF-I was measured using an established IGF binding protein blocked radioimmunoassay (Blum et al. Radioimmunoassays for insulin-like growth factors and their binding proteins. Growth Reg. 1994; 4: (Suppl.) 11-19). The IGF-I detection limit was 1.3 ng/ml with intra-assay and inter-assay coefficients of variation of 5.0% and 9.2%, respectively. Plasma IGF-II samples were intially treated with acid-ethanol cryoprecipitation to remove IGF II from binding proteins. IGF II was then measured by RIA using a highly specific polyclonal antiserum (Blum et al. A specific radioimmunoassay for insulin-like growth factor II. The interference of IGF binding proteins can be blocked by excess IGF-I. Acta Endcrinol (Copenh) 1988; 129:427-435). […]

[2] = Fasting serum IGF-I, IGF-II and leptin and BMI SDS in short SGA children on rhGH therapy; format: in vivo, human
Source text: All subjects were born SGA, had marked short stature (height approximately—3 standard deviation score (SDS)) with a height velocity<25th percentile for >1 year prior to starting rhGH therapy. SGA was defined as a birth weight<10th percentile for gestational age. Additional enrolment criteria for inclusion into the study included; no change in Tanner pubertal stage and/or testicular volumes throughout the study period, normal GH response to clonidine stimulation (defined as a GH level≧7 μgm/L), absence of both islet cell antibodies (<10 Juvenile Diabetes Foundation units) and insulin autoantibodies to exclude type 1 prediabetes. […] Body mass index (BMI) was used as a measure of relative obesity and expressed as BMI SDS.
Plasma glucose concentration was measured using a Hitachi 911 automated random access analyser (Tokyo, Japan) with an interassay coefficient variation of 1.2% (Trinder P. Determination of blood glucose using an oxidase-peroxidase system with a non-carcinogenic chromogen. J Clin Pathol 1995; 22: 158-61). Insulin was determined by Abbotts IMX microparticle enzyme immunoassay with an interassay coefficient of variation of <5%. Plasma IGF-I was measured using an established IGF binding protein blocked radioimmunoassay (Blum et al. Radioimmunoassays for insulin-like growth factors and their binding proteins. Growth Reg. 1994; 4: (Suppl.) 11-19). […]

[3] = Tail cuff systolic blood pressure in IUGR rats; format: in vivo, rat; conditions: day 53, tail cuff, vs no treatment group and GH treated group
Procedure: Studies of insulin resistance in vivo in rats were carried out in animals in which insulin resistance was produced by fetal undernutrition (“IUGR”) as described previously (Woodall et al. 1996). Virgin Wistar rats (age 100±5 days) were time mated using a rat estrus cycle monitor to assess the stage of estrus of the animals prior to introducing the male. After confirmation of mating, rats were housed individually in standard rat cages containing wood shavings as bedding and free access to water. All rats were kept in the same room with a constant temperature maintained at 25° C. and a 12-h light: 12-h darkness cycle. Animals received an undernutrition diet throughout pregnancy that was 30% of an ad libitum (“AD”) diet. Food intake and maternal weights were recorded daily until birth. […] After birth, pups were weighed and litter size recorded. […]
(§1) Troglitazone was added to food at approximately 100 mg/kg/day based on daily food consumption. Metformin was mixed with drinking water and the dose calculated to 500 mg/kg/day based on daily water consumption. […] Body weight and food intake of all offspring were measured daily for the first 2 weeks then every second day until study completion. […]
At day 53, systolic blood pressure measurements were recorded using tail cuff plethysmography (Blood pressure analyser IITC, Life Science, Woodland Hills, Calif., USA) as described previously (Vickers et al. 2000). […]

[4] = Fasting plasma insulin, glucose, IGF-I and FFA in IUGR rats treated for 28 days; format: in vivo, rat
Procedure: (§2) Studies of insulin resistance in vivo in rats were carried out in animals in which insulin resistance was produced by fetal undernutrition (“IUGR”) as described previously (Woodall et al. 1996). Virgin Wistar rats (age 100±5 days) were time mated using a rat estrus cycle monitor to assess the stage of estrus of the animals prior to introducing the male. After confirmation of mating, rats were housed individually in standard rat cages containing wood shavings as bedding and free access to water. All rats were kept in the same room with a constant temperature maintained at 25° C. and a 12-h light: 12-h darkness cycle. Animals received an undernutrition diet throughout pregnancy that was 30% of an ad libitum (“AD”) diet. Food intake and maternal weights were recorded daily until birth. A total of 40 male pups were recruited for the study. After birth, pups were weighed and litter size recorded. Litter size was then adjusted to eight pups to ensure standardised nutrition. Male pups from undernourished mothers were cross-fostered onto dams which received AD feeding throughout pregnancy to ensure post-natal viability. After weaning all male offspring were fed a hypercaloric diet ad libitum for the remainder of the study (total digestible energy 4846 kcal/kg, protein 31.8%, fat 30%, fat/energy ratio 55.72%, protein/energy ratio 26.25%). The fat content of the hypercaloric diet was chosen to be typical of many Western diets known to be associated with abnormalities in glucose metabolism in humans.
At 25 days of age, three days after weaning, study animals were enrolled into treatment groups for 28 days. The study groups were weight matched. The 40 study males were divided into four treatment groups, each of 10 animals; (a) no treatment (control group), (b) troglitazone and metformin, (c) recombinant bovine GH (GH) and (d) GH, troglitazone and metformin. […]
as §1
At day 53, systolic blood pressure measurements were recorded using tail cuff plethysmography (Blood pressure analyser IITC, Life Science, Woodland Hills, Calif., USA) as described previously (Vickers et al. 2000). […] Pulses in pressure were recorded during deflation at a rate of 3 mmHg/sec and the reappearance of a pulse was used to determine systolic blood pressure. […]
IGF-I in rat blood plasma was measured using an IGF binding protein (IGFBP)-blocked rat RIA described previously (Blum et al. 1994). […] Rat insulin was measured by an in-house radioimmunoassay (Vickers et al. 2000, Lewis et al. 1999). […]

[5] = Growth and body composition in IUGR rats; format: in vivo, rat
Procedure: as §2
At 25 days of age, three days after weaning, study animals were enrolled into treatment groups for 28 days. The study groups were weight matched. […]
as §1
Statistical comparisons were carried out using the statistical package SAS (version 8) for personal computers. […] For analysis of growth and body composition data (BMI and % retroperitoneal fat), each of the four treatment groups were analysed as separate treatments and then Dunnetts test was used to compare the three active treatments with the control group. Data are expressed as mean±SEM, with p<0.05.
Body composition was examined in several different ways; body mass index (BMI), retroperitoneal fat expressed as a percentage of body weight (retroperitoneal fat %) and gonadal fat expressed as a percentage of body weight (gonadal fat %). […]

Molecule | compensatory rise in AIR (acute insulin response) ([1]; during rhGH therapy, p<0.009) [%] | recovery of SI after rhGH suspended ([1]; five prepubertal subjects, three months after rhGH therapy was suspended) | fall in SI during rhGH therapy, prepubertal children ([1]; prepubertal subjects) [%] | fall in SI during rhGH therapy, pubertal subjects ([1]; pubertal subjects) [%] | fall in SI (insulin sensitivity) during rhGH therapy ([1]; short SGA children, all subjects, 21±6 months of rhGH, p=0.018) [%] | adverse event: type 2 diabetes mellitus ([2]; one subject, 12 months after cessation of 4.1 years of rhGH therapy) | fasting serum IGF-I level ([2]; with rhGH therapy, 127±37 pretreatment, p<0.001) [μgm/l] | systolic BP [3] | fasting insulin levels ([4]; 28 days of treatment, GH vs no treatment p<0.0001, GH plus sensitisers vs GH alone p=0.01) | plasma free fatty acids (FFA) ([4]; fasting) | plasma glucose ([4]; fasting, no treatment group 7.8±0.3, p<0.0001) [mmol/L] | fasting IGF-I levels ([4]; p<0.0001) | nose to anus length ([5]; IUGR rats at study end, no treatment group 179±2) [mm] | gonadal fat % (percentage of body weight) ([5]; IUGR rats, across the four groups) | retroperitoneal fat % (percentage of body weight) ([5]; IUGR rats, no treatment group 0.97±0.06%) [%] | BMI ([5]; IUGR rats, no treatment group 6.8±0.2)
rhGH: recombinant human growth hormone given to short SGA children | 123±59 | no recovery in SI | 48 | 35 | 44±10 | developed type 2 diabetes mellitus | 189±46 | – | – | – | – | – | – | – | – | –
GH: recombinant bovine GH, subcutaneously 10 μgm/gm/day in two divided doses in IUGR rats (protein, UniProt P01246 27-217, looked up) Somatotropin: AFPAMSLSGLFANAVLRAQHLHQLAADTFKEFERTYIPEGQRYSIQNTQVAFCFSETIPAPTGKNEAQQKSDLELLRISLLLIQSWLGPLQFLSRVFTNSLVFGTSDRVYEKLKDLEEGILALMRELEDGTPRAGQILKQTYDKFDTNMRSDDALLKNYGLLSCFRKDLHKTETYLRVMKCRRFGEASCAF | – | – | – | – | – | – | – | trend of increasing systolic BP | substantially and significantly increased | fall observed in plasma FFA | 11.9 ± 0.9 | higher | 188±1 | increase in gonadal fat % | 0.69±0.05 | 6.9±0.1
